Results published in patent US20110300138A1 (published 2011).

Target: human TSHR (thyroid stimulating hormone receptor), full length, expressed in transfected CHO cells (human) (UniProt P16473)
Assay: cell-based or functional assay

% Inhibition of K1-18 IgG stimulation; 10 ng/mL K1-18 IgG + 0.001 µg/mL 5C9 IgG: 19%
% Inhibition of K1-18 IgG stimulation; 10 ng/mL K1-18 IgG + 0.01 µg/mL 5C9 IgG: 0%
% Inhibition of K1-18 IgG stimulation; 10 ng/mL K1-18 IgG + 0.1 µg/mL 5C9 IgG: 91%
% Inhibition of K1-18 IgG stimulation; 10 ng/mL K1-18 IgG + 0.5 µg/mL 5C9 IgG: 99%
% Inhibition of K1-18 IgG stimulation; 10 ng/mL K1-18 IgG + 1 µg/mL 5C9 IgG: 98%
% Inhibition of K1-18 IgG stimulation; 10 ng/mL K1-18 IgG + 5 µg/mL 5C9 IgG: 97%
% Inhibition of K1-18 IgG stimulation; 10 ng/mL K1-18 IgG + 10 µg/mL 5C9 IgG: 97%
% Inhibition of K1-18 IgG stimulation; 10 ng/mL K1-18 IgG + 50 µg/mL 5C9 IgG: 100%
% Inhibition of K1-18 IgG stimulation; 10 ng/mL K1-18 IgG + 100 µg/mL 5C9 IgG: 100%
% Inhibition of K1-18 stimulation; 10 ng/mL K1-18 + 0.001 µg/mL 5C9 IgG: 0%
% Inhibition of K1-18 stimulation; 10 ng/mL K1-18 + 0.01 µg/mL 5C9 IgG: 25%
% Inhibition of K1-18 stimulation; 10 ng/mL K1-18 + 0.1 µg/mL 5C9 IgG: 99%
% Inhibition of K1-18 stimulation; 10 ng/mL K1-18 + 1 µg/mL 5C9 IgG: 99.4%
% Inhibition of K1-18 stimulation; 10 ng/mL K1-18 + 10 µg/mL 5C9 IgG: 99.6%
% Inhibition of K1-18 stimulation; 10 ng/mL K1-18 + 100 µg/mL 5C9 IgG: 98.7%
B1: 5C9 IgG (antibody, from another filing, V domains shown)
VH: EVQLVESGGGLIQPGGSLRLSCAASGFTVSSNYMSWVRQAPGKGLEWVSVTYSGGSTSYADSVKGRFTISRDNSKNTLYLQMNSLRAEDTAVYYCARGGRYCSSISCYARSGCDYWGQGTLVTVSS
VL: AIQMTQSPSSLSASVGDRVTITCRASQSISNYLNWYQQKPGKAPKLLIYAASSLQSGVPSRFSGSGSGTDFTLTISSLQPEDFATYYCQQSYSSPSTTFGQGTKLEIK
